From patent US8709741B2, “Methods of diagnosing a plasmodium infection” (priority 2009, dated 2014)
Where two headings read alike, the source gives them in different places.

Key:
[1] = tested on: P. falciparum; assay: Anti-Plasmodium activity assay in Albumax II (serum substitute); format: cell-based; settings: Albumax II
Protocol: The chloroquine-resistant P. falciparum FcB1/Colombian strain was used. Under the following culture conditions, the in vitro life cycle of the FcB1 strain was 48 hours. Cultures were grown in complete medium consisting of RPMI 1640 (Life Technologies, Inc.) supplemented with 11 mM glucose, 27.5 mM NaHCO3, 100 UI/mL penicillin, 100 μg/mL streptomycin, adjusted to pH 7.4 before addition of heat-inactivated human serum (A+ blood group, 8% final) or Albumax II® (0.5% final), according to the procedure of Trager and Jensen (1976). Parasites were routinely grown at 37° C. in human A+ RBCs (Red blood cells) at a 2% haematocrit and 2-6% parasitemia, in a 3% CO2, 6% O2 and 91% N2 atmosphere. Semi-synchronized cultures were established by Sorbitol (Lambros) treatment. […] Parasitaemia and stage distribution were determined by optical examination of Diff-Quick stained culture smears. […]
Dried preparations of the purified recombinant human sPLA2s were re-suspended at high concentration (usually 50 μM) in RPMI 0.05% BSA, and then tested individually for their capacity to inhibit the in vitro intra-erythrocytic development of P. falciparum. […] Radioactivity was measured with a 1450 Microbeta counter (Wallac, Perkin Elmer). Percentage of growth inhibition was calculated from the parasite-associated radioactivity compared with control without sPLA2. Values for the IC50 were determined from dose-response curves. […]

[2] = tested on: P. falciparum FcB1/Colombian strain; assay: Anti-Plasmodium activity assay (dose-response, 3H-hypoxanthine incorporation), culture with human serum; format: cell-based
Protocol: The chloroquine-resistant P. falciparum FcB1/Colombian strain was used. Under the following culture conditions, the in vitro life cycle of the FcB1 strain was 48 hours. Cultures were grown in complete medium consisting of RPMI 1640 (Life Technologies, Inc.) supplemented with 11 mM glucose, 27.5 mM NaHCO3, 100 UI/mL penicillin, 100 μg/mL streptomycin, adjusted to pH 7.4 before addition of heat-inactivated human serum (A+ blood group, 8% final) or Albumax II® (0.5% final), according to the procedure of Trager and Jensen (1976). Parasites were routinely grown at 37° C. in human A+ RBCs (Red blood cells) at a 2% haematocrit and 2-6% parasitemia, in a 3% CO2, 6% O2 and 91% N2 atmosphere. Semi-synchronized cultures were established by Sorbitol (Lambros) treatment. Highly synchronized cultures (4 hour-window synchronization) were obtained by successive Plamion (Pasvol) and Sorbitol treatments. Parasitaemia and stage distribution were determined by optical examination of Diff-Quick stained culture smears. Parasitaemia (expressed in percent) is hundred times the number of parasitized erythrocytes divided by the total number of erythrocytes.
Dried preparations of the purified recombinant human sPLA2s were re-suspended at high concentration (usually 50 μM) in RPMI 0.05% BSA, and then tested individually for their capacity to inhibit the in vitro intra-erythrocytic development of P. falciparum. Dose-response assays based on ^3H-hypoxanthine incorporation by growing parasites were performed as in Guillaume et al. (2004). Radioactivity was measured with a 1450 Microbeta counter (Wallac, Perkin Elmer). Percentage of growth inhibition was calculated from the parasite-associated radioactivity compared with control without sPLA2. Values for the IC50 were determined from dose-response curves.

B1: X: recombinant human group X secreted phospholipase A2 (protein, UniProt O15496 43-165, looked up)
Group 10 secretory …: GILELAGTVGCVGPRTPIAYMKYGCFCGLGGHGQPRDAIDWCCHGHDCCYTRAEEAGCSPKTERYSWQCVNQSVLCGPAENKCQELLCKCDQEIANCLAQTEYNLKYLFYPQFLCEPDSPKCD
inhibition of Plasmodium growth in Albumax II [1]: does not efficiently inhibit Plasmodium growth | IC50 ([2]; Table II, read-out: IC50 (nM), anti-P. falciparum activity given for comparison): 2.9 ± 2.4 nM | IC50 ([2]; culture in human red blood cells and serum, mean of independent dose-response assays, read-out: IC50 ± SD (anti-P. falciparum activity)): 2.9 ± 2.4 nM | inhibition of P. falciparum development in vitro ([2]; standard P. falciparum cultures with serum): active against P. falciparum
